Measurements from paper PMC2944003.

Molecular target: human complement receptor 3 (CR3) on CR3-transfected CHO cells (CHO/CR3) (human), P11215
Experiment: flow cytometry on cells
Conditions: remark: other sources report otherwise

B1: Factor H (fH), purified human, P08603 19-1231 (natural protein)
chain: EDCNELPPRRNTEILTGSWSDQTYPEGTQAIYKCRPGYRSLGNVIMVCRKGEWVALNPLRKCQKRPCGHPGDTPFGTFTLTGGNVFEYGVKAVYTCNEGYQLLGEINYRECDTDGWTNDIPICEVVKCLPVTAPENGKIVSSAMEPDREYHFGQAVRFVCNSGYKIEGDEEMHCSDDGFWSKEKPKCVEISCKSPDVINGSPISQKIIYKENERFQYKCNMGYEYSERGDAVCTESGWRPLPSCEEKSCDNPYIPNGDYSPLRIKHRTGDEITYQCRNGFYPATRGNTAKCTSTGWIPAPRCTLKPCDYPDIKHGGLYHENMRRPYFPVAVGKYYSYYCDEHFETPSGSYWDHIHCTQDGWSPAVPCLRKCYFPYLENGYNQNYGRKFVQGKSIDVACHPGYALPKAQTTVTCMENGWSPTPRCIRVKTCSKSSIDIENGFISESQYTYALKEKAKYQCKLGYVTADGETSGSITCGKDGWSAQPTCIKSCDIPVFMNARTKNDFTWFKLNDTLDYECHDGYESNTGSTTGSIVCGYNGWSDLPICYERECELPKIDVHLVPDRKKDQYKVGEVLKFSCKPGFTIVGPNSVQCYHFGLSPDLPICKEQVQSCGPPPELLNGNVKEKTKEEYGHSEVVEYYCNPRFLMKGPNKIQCVDGEWTTLPVCIVEESTCGDIPELEHGWAQLSSPPYYYGDSVEFNCSESFTMIGHRSITCIHGVWTQLPQCVAIDKLKKCKSSNLIILEEHLKNKKEFDHNSNIRYRCRGKEGWIHTVCINGRWDPEVNCSMAQIQLCPPPPQIPNSHNMTTTLNYRDGEKVSVLCQENYLIQEGEEITCKDGRWQSIPLCVEKIPCSQPPQIEHGTINSSRSSQESYAHGTKLSYTCEGGFRISEENETTCYMGKWSSPPQCEGLPCKSPPEISHGVVAHMSDSYQYGEEVTYKCFEGFGIDGPAIAKCLGEKWSHPPSCIKTDCLSLPSFENAIPMGEKKDVYKAGEQVTYTCATYYKMDGASNVTCINSRWTGRPTCRDTSCVNPPTVQNAYIVSRQMSKYPSGERVRYQCRSPYEMFGDEEVMCLNGNWTEPPQCKDSTGKCGPPPPIDNGDITSFPLSVYAPASSVEYQCQNLYQLEGNKRITCRNGQWSEPPKCLHPCVISREIMENYNIALRWTAKQKLYSRTGESVEFVCKRGYRLSSRSHTLRTTCWDGKLEYPTCAKR
  fold increase in binding to CHO/CR3 cells compared to CHO/NEO cells: 4 fold
